Assay results as given in PMC5778809.

Molecular target: SELENOF’-YFP (human selenoprotein F with Sec changed to Cys, fused to enhanced yellow fluorescence protein) (human) (UniProt O60613)
Assay: FRET or BRET; acceptor photobleaching in HEK293T cells co-transfected with pEYFP-N1 and pECFP-C1 constructs; YFP bleached at 515 nm, CFP read before and after; confocal microscope

Sequence of UniProt O60613 (O60613 32-165): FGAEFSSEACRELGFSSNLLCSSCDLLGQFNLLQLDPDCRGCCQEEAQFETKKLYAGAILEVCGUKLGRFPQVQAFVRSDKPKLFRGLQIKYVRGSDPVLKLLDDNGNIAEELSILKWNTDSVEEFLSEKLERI

B1: CFP-RDH11 (human retinol dehydrogenase 11 fused to cyan fluorescence protein) (enzyme)
chain: VELMFPLLLLLLPFLLYMAAPQIRKMLSSGVCTSTVQLPGKVVVVTGANTGIGKETAKELAQRGARVYLACRDVEKGELVAKEIQTTTGNQQVLVRKLDLSDTKSIRAFAKGFLAEEKHLHVLINNAGVMMCPYSKTADGFEMHIGVNHLGHFLLTHLLLEKLKESAPSRIVNVSSLAHHLGRIHFHNLQGEKFYNAGLAYCHSKLANILFTQELARRLKGSGVTTYSVHPGTVQSELVRHSSFMRWMWWLFSFFIKTPQQGAQTSLHCALTEGLEILSGNHFSDCHVAWVSAQARNETIARRLWDVSCDLLGLPID
For B1, the FRET energy transfer efficiency was 29.2% and the estimated distance between donor and acceptor (FRET) was 5.51 nm.
